B1: C33B904 hIgG1 (antibody, V domains shown)
VH: EVQLVESGGGLVQPGRSLRLSCAASGFTFDDYAMHWVRQAPGKGLEWVSGIGWSGGSIVYADSVKGRFTISRDNAKNSLYLQMNSLRAEDTALYYCAKDSPYGDFFDYWGQGTLVTVSS
VL: DIVMTQSPDSLAVSLGERATINCKSSQTVFYSSNNKNYLAWYQQKPGQPPKLLISWASTRKSGVPDRFSGSGSGTDFTLTVSSLQAEDVAVYYCQHYYSTPYTFGQGTKLEIKR
notes: intact human IgG1; variable regions from US20190382481A1; also called C33B3904; C331B904
B2: C33B904 (antibody, human IgG1, kappa, V domains shown)
VH: EVQLVESGGGLVQPGRSLRLSCAASGFTFDDYAMHWVRQAPGKGLEWVSGIGWSGGSIVYADSVKGRFTISRDNAKNSLYLQMNSLRAEDTALYYCAKDSPYGDFFDYWGQGTLVTVSS
VL: DIVMTQSPDSLAVSLGERATINCKSSQTVFYSSNNKNYLAWYQQKPGQPPKLLISWASTRKSGVPDRFSGSGSGTDFTLTVSSLQAEDVAVYYCQHYYSTPYTFGQGTKLEIKR
notes: control antibody, intact human IgG1 form; variable regions from US20190382481A1; also called C33B904 hIgG1; C331B904

Experiments:
[1] = target: T1, human CD33 on U937 cells (endogenous) (human, UniProt P20138 18-364); experiment: FACS, U937 cells
T1 construct: whole, on cells
Method: The desired cells were expanded to a logarithmic growth phase in a T-75 cell culture flask. For adherent cells CHO-K1, the culture medium was removed by pipetting, and the cells were washed twice with a PBS buffer, digested with trypsin, and washed twice with a PBS buffer again after the digestion was stopped. For suspension cells U937, the medium supernatant was discarded by direct centrifugation, and the cell pellet was washed twice with PBS, and then incubated with a buffer containing human Fc Block (purchased from BD, Cat. No. 564220) for 15 min. After the cells obtained in the last step were subjected to cell counting, the cell pellet was resuspended to 2×10⁶ cells/mL with a blocking solution [PBS+2% (w/w) BSA] and added to a 96-well FACS reaction plate at 50 μL/well. The VHH-Fc antibody (a sample to be tested) was added at 50 μL/well, and the plate was incubated on ice for 2 h. […] After the plate was centrifuged and washed 5 times with a PBS buffer, the results were assayed and analyzed by FACS (FACS Canto™, purchased from BD Biosciences), so as to obtain the mean fluorescence intensity (MFI) of cells. Then, analysis was performed by software (GraphPad Prism8), data were fitted, and EC50 values were calculated.

[2] = target: T2, human CD33-His (extracellular domain Asp 18-His 259) (human, UniProt P20138 18-259); experiment: ELISA on coated human CD33-his
T2 construct: range 18-259; bought protein; also called hCD33-his; human CD33 protein; not shown: His tag
Method: In order to assay the binding activity of VHH-Fc to human CD33 protein, a human CD33-his protein (purchased from ACROBiosystems, Cat. No. CD3-H5226) was diluted with PBS to make a final concentration of 2 μg/mL, and then added into a 96-well ELISA plate at 100 μL/well. The plate was sealed with a plastic film and incubated at 4° C. overnight, washed twice with PBS the next day, and a blocking solution [PBS+2% (w/w) BSA] was added for blocking at room temperature for 2 h. The blocking solution was discarded, and VHH-Fc antibody or negative control antibody serially diluted from 100 nM was added at 50 μL/well. After incubation at 37° C. for 2 h, the plate was washed 3 times with PBS. A secondary antibody labeled with HRP (horseradish peroxidase) (purchased from Sigma, Cat. No. A0170) was added. After incubation for 1 h at 37° C., the plate was washed 5 times with PBS. A TMB substrate was added at 50 μL/well. After incubation at room temperature for 10 min, a stop solution (1.0 N HCl) was added at 50 μL/well. The OD450 nm values were read on an ELISA plate reader (Multimode Plate Reader, EnSight, purchased from Perkin Elmer). The assay results for the binding of the VHH-Fc to hCD33-his by ELISA are shown in FIGS. 7A and 7B and Tables 11 and 12. […] The IgG control was hIgG1, and the data in the table are OD450 nm values. […]

human CD33-C2-his = target: T3, human CD33-C2-his (human, UniProt P20138 136-260); experiment: ELISA on coated human CD33-C2-his
T3 construct: expressed in HEK293E; also called hCD33-C2-his; human CD33 protein C2-domain; not shown: His tag

[3] = target: T2, human CD33-His (extracellular domain …); experiment: competitive ELISA vs coated C33B904 3ug/mL; soluble 25ug/ml
human CD33-his protein [4] = target: T4, human CD33-his protein (human, UniProt P20138 18-259); experiment: competition ELISA, coated human CD33-his, vs Biotin-C33B904 at EC80; antibody 7.81 nM
T4 construct: range 18-259; bought protein; also called hCD33-his; recombinant human CD33-his; not shown: His tag
Method: (§1) The plate was sealed with a plastic film and incubated at 4° C. overnight, washed twice with PBS the next day, and a blocking solution [PBS+2% (w/w) BSA] was added for blocking at room temperature for 2 h. The blocking solution was discarded, and VHH-Fc antibody or negative control antibody serially diluted from 100 nM was added at 50 μL/well. After incubation at 37° C. for 2 h, the plate was washed 3 times with PBS. A secondary antibody labeled with HRP (horseradish peroxidase) (purchased from Sigma, Cat. No. A0170) was added. After incubation for 1 h at 37° C., the plate was washed 5 times with PBS. A TMB substrate was added at 50 μL/well. After incubation at room temperature for 10 min, a stop solution (1.0 N HCl) was added at 50 μL/well. The OD450 nm values were read on an ELISA plate reader (Multimode Plate Reader, EnSight, purchased from Perkin Elmer). The assay results for the binding of the VHH-Fc to hCD33-his by ELISA are shown in FIGS. 7A and 7B and Tables 11 and 12. […] The IgG control was hIgG1, and the data in the table are OD450 nm values.
(§2) ELISA plates were coated with 2 μg/mL human CD33-his protein according to the method in Example 5.1; the Biotin-C331B904 antibody was subjected to a gradient dilution from 15 μg/mL, and EC80 values (0.18 μg/mL) were calculated. […] OD_{450 nm} values were read using an ELISA plate reader (Insight, purchased from PerkinElmer). […]

human CD33-his protein [5] = target: T4, human CD33-his protein; experiment: competition ELISA, coated human CD33-his, vs Biotin-C33B904 at EC80; antibody 31.25 nM
Method: as §1, §2

human CD33-his protein [6] = target: T4, human CD33-his protein; experiment: competition ELISA, coated human CD33-his, vs Biotin-C33B904 at EC80; antibody 1.95 nM
Method: ELISA plates were coated with 2 μg/mL human CD33-his protein according to the method in Example 5.1; the Biotin-C331B904 antibody was subjected to a gradient dilution from 15 μg/mL, and EC80 values (0.18 μg/mL) were calculated. ELISA plates were coated with 2 μg/mL human CD33-his protein; starting from 40 μg/mL, the VHH antibodies to be tested were diluted in a 1:2 dilution ratio to obtain seven concentrations and added to the ELISA plates, and then Biotin-C331904 antibodies with the EC80 concentrations were added for incubation for 2 h. The plates were washed 5 times with PBS and then […] (purchased from Sigma, Cat. No. S2438) were added for incubation for 1 h, and the plates were washed 5 times. A TMB substrate was added at 50 μL/well and incubated at room temperature for 10 min, then a stop solution (1.0 M HCl) was added at 50 μL/well. OD_{450 nm} values were read using an ELISA plate reader (Insight, purchased from PerkinElmer). Then, analysis was performed by software (GraphPad Prism8), and data were fitted for curve plotting. The results are shown in FIGS. 13A-13B and Tables 28 and 29.

T4 sequence (P20138 18-259 limits assumed): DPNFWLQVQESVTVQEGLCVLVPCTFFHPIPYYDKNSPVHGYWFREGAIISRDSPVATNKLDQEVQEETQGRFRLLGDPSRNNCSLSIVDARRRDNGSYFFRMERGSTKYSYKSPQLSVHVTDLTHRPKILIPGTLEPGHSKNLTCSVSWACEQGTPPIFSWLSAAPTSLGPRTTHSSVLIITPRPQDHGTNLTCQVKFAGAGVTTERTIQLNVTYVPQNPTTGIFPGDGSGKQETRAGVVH
T2 sequence (P20138 18-259 limits assumed): as above
T1 sequence (P20138 18-364): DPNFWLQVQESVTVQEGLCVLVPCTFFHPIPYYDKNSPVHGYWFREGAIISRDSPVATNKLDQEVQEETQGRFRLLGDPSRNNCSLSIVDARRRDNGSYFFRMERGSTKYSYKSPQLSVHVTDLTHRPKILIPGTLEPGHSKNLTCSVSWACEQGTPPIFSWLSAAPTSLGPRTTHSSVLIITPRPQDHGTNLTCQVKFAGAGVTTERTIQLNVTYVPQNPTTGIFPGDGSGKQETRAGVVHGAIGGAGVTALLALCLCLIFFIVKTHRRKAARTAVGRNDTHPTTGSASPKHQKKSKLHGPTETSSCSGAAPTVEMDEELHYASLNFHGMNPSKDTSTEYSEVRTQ
T3 sequence (P20138 other isoform, or with tags, fused parts or gaps limits assumed): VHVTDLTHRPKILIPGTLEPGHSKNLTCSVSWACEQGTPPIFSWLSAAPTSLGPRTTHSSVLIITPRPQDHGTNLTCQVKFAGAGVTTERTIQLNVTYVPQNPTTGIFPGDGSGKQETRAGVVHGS

Row | Binder | EC50 [1] | Max MFI [1] | EC50 (read off the curve) [2] | EC50 (read off the curve) (human CD33-C2-his) | inhibition rate [3] | OD450 (Biotin-C33B904 signal) (human CD33-his protein [4]) | OD450 (Biotin-C33B904 signal) (human CD33-his protein [5]) | OD450 (Biotin-C33B904 signal) (human CD33-his protein [6])
1 | B1 | 12.6 nM | 682 MFI | ~0.3 nM | ~0.3 nM | 86% |  |  | 
2 | B2 |  |  |  |  |  | 1.72 | 0.46 | 2.02
